Assays:
Colo320 cells = experiment: Cellular uptake of FITC-labelled peptides; type: cell-based; details: FITC derivatives
Description: (§1) For fluorescence microscopy evaluation, cells were prepared using a cytocentrifuge (Thermo Shandon) and fixed as previously described (Sukhdeo, K. et al. Proc Natl Acad Sci USA 104, 7516-21 (2007); Mani, M. et al. Cancer Res 69, 7577-86 (2009)). Anti-β-catenin and rhodamine-conjugated secondary antibodies (5 μg/ml; Southern Biotechnology) were employed. Images were obtained using a BioRad Radiance 2000 laser scanning confocal microscope. Cell permeability of SAH-BCL9B and SAH-BCL9B(R359E) were determined by fluorescence microscopy of cells treated with FITC-derivatives of the above described stapled peptides and also by blotting/fluorescence scan, performed as previously described (Pitter, K. et al Methods Enzymol, 446, (2008), 387-408; Walensky, L. D. et al. Science 305, 1466-70 (2004). See results in FIG. 1E, FIG. 7.

MM1S cells = experiment: Cellular uptake of FITC-labelled peptides; type: cell-based; details: FITC derivatives
Description: as §1

IκBα and actin = experiment: Anti-FITC pulldown from MCF7 lysates (unrelated proteins); type: cell-based; details: MCF7 cells, selectivity
From the text: (§2) Western blotting, performed as described (Sukhdeo, K. et al. Proc Natl Acad Sci USA 104, 7516-21 (2007)), employed the following primary antibodies: BCL9 (6109) (Mani, M. et al. Cancer Res 69, 7577-86 (2009)), BCL9 (ab37305, Abcam), B9L (AF4967, R&D Systems), β-catenin (CAT5-H10, Zymed), FITC (ab19224, Abcam), Actin-HRP (C-11, Santa Cruz), Caspase3 (#9662, Cell Signaling), IκBα (#9242, Cell signaling), PARP (#9542, Cell Signaling), E-cadherin (#3195, Cell Signaling), and Lamin B (sc-6217, Santa Cruz). Horseradish peroxidase conjugated secondary antibodies were purchased from Santa Cruz and SouthernBiotech. Co-immunoprecipitation was performed as described (Walensky, L. D. et al. Science 305, 1466-70 (2004)). Briefly, cells were lysed in 50 mM Tris, 150 mM NaCl, and 1% CHAPS buffer containing protease and phosphatase inhibitors. Lysates were precleared with Protein A/G PLUS-agarose beads (Santa Cruz Biotechnologies) for 3 hours followed by overnight incubation at 4° C. with the respective antibodies. Agarose A/G beads were then added for 4 h, pelleted, and washed as described (Walensky, L. D. et al. Science 305, 1466-70 (2004)). See results in FIG. 1D, FIG. 1H, FIG. 2A, FIG. 8.

β-catenin = target: T1, β-catenin (Homo sapiens, UniProt P35222); experiment: Anti-FITC / anti-β-catenin co-immunoprecipitation from lysates of peptide-treated cells; type: cell-based; details: FITC and β-catenin immunoprecipitation, in situ
T1 construct: endogenous in cells; host or cells: Colo320
T1 sequence (P35222 1-781): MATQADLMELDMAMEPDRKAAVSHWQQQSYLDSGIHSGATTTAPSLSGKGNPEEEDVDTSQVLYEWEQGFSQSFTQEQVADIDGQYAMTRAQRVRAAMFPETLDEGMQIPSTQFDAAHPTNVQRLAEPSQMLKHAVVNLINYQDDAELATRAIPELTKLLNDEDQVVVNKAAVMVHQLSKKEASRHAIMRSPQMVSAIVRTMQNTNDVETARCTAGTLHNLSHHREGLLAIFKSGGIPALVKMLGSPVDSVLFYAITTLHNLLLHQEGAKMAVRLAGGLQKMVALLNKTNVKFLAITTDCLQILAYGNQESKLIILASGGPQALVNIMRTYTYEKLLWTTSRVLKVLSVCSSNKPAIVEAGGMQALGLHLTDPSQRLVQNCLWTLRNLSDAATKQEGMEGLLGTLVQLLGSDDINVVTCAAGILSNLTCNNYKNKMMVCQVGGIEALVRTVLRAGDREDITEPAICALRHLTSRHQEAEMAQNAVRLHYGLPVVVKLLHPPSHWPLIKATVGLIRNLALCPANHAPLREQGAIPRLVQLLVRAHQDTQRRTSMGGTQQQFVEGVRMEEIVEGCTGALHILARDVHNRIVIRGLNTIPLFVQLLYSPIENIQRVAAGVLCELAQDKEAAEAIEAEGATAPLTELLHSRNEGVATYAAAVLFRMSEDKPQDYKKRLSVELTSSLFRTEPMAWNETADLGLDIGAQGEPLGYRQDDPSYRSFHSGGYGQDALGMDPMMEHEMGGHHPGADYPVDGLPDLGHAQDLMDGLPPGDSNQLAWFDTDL
From the text: as §2

[1] = target: T2, β-catenin/E-cadherin interaction (Homo sapiens, UniProt P35222); experiment: Anti-β-catenin co-immunoprecipitation of E-cadherin from MCF7 cell lysates; type: cell-based; details: selectivity
T2 construct: anti-β-catenin co-immunoprecipitation of E-cadherin from MCF7 cell lysates; endogenous in cells; host or cells: MCF7
T2 sequence (P35222 2-781 limits assumed): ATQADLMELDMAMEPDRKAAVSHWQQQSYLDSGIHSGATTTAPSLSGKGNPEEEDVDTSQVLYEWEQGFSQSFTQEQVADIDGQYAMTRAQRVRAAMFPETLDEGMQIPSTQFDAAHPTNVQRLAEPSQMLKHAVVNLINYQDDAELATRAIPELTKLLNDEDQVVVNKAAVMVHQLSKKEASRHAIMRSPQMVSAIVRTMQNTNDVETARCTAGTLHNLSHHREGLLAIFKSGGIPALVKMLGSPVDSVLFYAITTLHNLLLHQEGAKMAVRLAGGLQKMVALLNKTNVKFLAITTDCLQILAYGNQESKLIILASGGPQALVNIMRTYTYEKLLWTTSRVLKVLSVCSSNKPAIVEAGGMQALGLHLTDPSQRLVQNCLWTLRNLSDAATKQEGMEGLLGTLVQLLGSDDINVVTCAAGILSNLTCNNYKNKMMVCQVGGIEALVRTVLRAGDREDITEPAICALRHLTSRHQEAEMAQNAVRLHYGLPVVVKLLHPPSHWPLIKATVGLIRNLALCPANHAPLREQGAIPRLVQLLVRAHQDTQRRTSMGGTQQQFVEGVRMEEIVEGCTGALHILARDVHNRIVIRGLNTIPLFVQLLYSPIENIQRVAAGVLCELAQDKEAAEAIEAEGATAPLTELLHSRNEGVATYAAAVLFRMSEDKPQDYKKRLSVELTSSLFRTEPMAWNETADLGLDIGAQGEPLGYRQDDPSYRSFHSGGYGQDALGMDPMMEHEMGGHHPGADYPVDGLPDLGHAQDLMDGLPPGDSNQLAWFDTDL
From the text: as §2

colon cancer cells = details: Lepourcelet et al. 2004; cited from earlier work
[2] = tested on: β-catenin/TCF interaction; details: Lepourcelet et al. 2004; cited from earlier work
[3] = Sukhdeo et al. 2007; cited from earlier work

Row | Substance | cellular uptake (Colo320 cells) | temperature-dependent uptake (Colo320 cells) | cellular uptake (MM1S cells) | co-immunoprecipitation of unrelated proteins (IκBα, actin) (IκBα and actin) | β-catenin interaction by co-immunoprecipitation (β-catenin) | effect on β-catenin's interaction with E-cadherin [1] | growth of colon cancer cells (colon cancer cells) | Wnt-specific transcriptional activity [2] | toxicity in treated mice [3]
1 | FITC-SAH-BCL9B(R359E): FITC derivative of SAH-BCL9B(R359E) | equivalent cellular uptake | equivalent temperature-dependent uptake | equivalent cellular uptake | – | – | – | – | – | –
2 | FITC-SAH-BCL9B: FITC derivative (via β-Ala at the amino terminus) of SAH-BCL9B | equivalent cellular uptake | equivalent temperature-dependent uptake | equivalent cellular uptake | no co-immunoprecipitation of unrelated proteins | dose-responsively co-immunoprecipitated with β-catenin | no effect | – | – | –
3 | PKF115-584 | – | – | – | – | – | – | reduced the growth of colon cancer cells | blocked Wnt-specific transcriptional activity | severe bone marrow hypoplasia, anemia, and generalized wasting
4 | SAH-BCL9B(H358D): SEQ ID NO: 6: LSQEQLEDRERSLXTLRXIQRBLF; reverse polarity point mutant of SAH-BCL9B | similar | – | – | – | impaired β-catenin interaction | – | – | – | –

— patent publication US12534501B2, “Targeting deregulated Wnt signaling in cancer using stabilized alpha-helices of BCL-9” (Dana-Farber Cancer Institute, Inc., priority 2011, dated 2026)
